Settings in all cases: protein: recombinant; tags: His6 (pET-28a); chain copies: 2; label: 5' biotin on strand 1; blunt
Data set [1] deals with T1, His6-PhoP (Riemerella anatipestifer RA-YM, UniProt E4TAE7 2-228).
T1 sequence: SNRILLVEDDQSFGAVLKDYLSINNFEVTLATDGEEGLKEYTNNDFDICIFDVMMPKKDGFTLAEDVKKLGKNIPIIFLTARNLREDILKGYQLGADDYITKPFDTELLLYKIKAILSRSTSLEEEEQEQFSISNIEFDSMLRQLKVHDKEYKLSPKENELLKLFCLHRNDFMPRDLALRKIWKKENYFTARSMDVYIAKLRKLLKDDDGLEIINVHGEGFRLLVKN
Briefly: EMSA.

For a further data set, the target named is T2, His6-PhoP-DBD (Riemerella anatipestifer RA-YM, UniProt E4TAE7 130-228).
T2 sequence: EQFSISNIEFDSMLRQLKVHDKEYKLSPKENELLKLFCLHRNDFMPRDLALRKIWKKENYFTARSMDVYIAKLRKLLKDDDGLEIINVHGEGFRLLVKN
The data set is described as follows: EMSA.

Data set [2] concerns the target T1, His6-PhoP. Briefly: EMSA; unphosphorylated.
Data set [3] has as its target T1, His6-PhoP. The data set is described as follows: EMSA; phosphorylated by acetyl phosphate.

B1: KYF39_06865 motif probe (dsDNA)
DNA 1: CGTTAAAAAATAAAGCGAGGTTTTGTTGTTTTAAA
DNA 2: TTTAAAACAACAAAACCTCGCTTTATTTTTTAACG
Regarding B1, the binding result with His6-PhoP [1] was “binds”.

B2: phoPR motif probe (dsDNA)
DNA 1: AAACTCATAATAATCTGTTAAAAAACTCGTTTTTA
DNA 2: TAAAAACGAGTTTTTTAACAGATTATTATGAGTTT
As for B2, the binding result is reported as “binds” in the data set with His6-PhoP [1] and “no binding” with His6-PhoP-DBD.

B3: KYF39_00905 (transporter) probe (dsDNA)
DNA 1: CAAAAAATATTTCATTAACAGAATAGACAATCATA
DNA 2: TATGATTGTCTATTCTGTTAATGAAATATTTTTTG
One may read the Kd as a measure of binding affinity in units of concentration. Regarding B3, the Kd came to 39.2 nM with His6-PhoP [2] and 39.5 nM with His6-PhoP [3].

B4: KYF39_07405 (OMPbB) probe (dsDNA)
DNA 1: ATAAAGTGGCAAATTTAACTTTAATAATTAAAAGA
DNA 2: TCTTTTAATTATTAAAGTTAAATTTGCCACTTTAT
For B4, the binding result in the data set with His6-PhoP [1] is given as “binds”.

B5: KYF39_00915 (transposase) probe (dsDNA)
DNA 1: TGAAAATTTCAAATTTAACTAAAGCTTATAGCAAT
DNA 2: ATTGCTATAAGCTTTAGTTAAATTTGAAATTTTCA
With B5, the Kd with His6-PhoP [2] turned out to be 29.8 nM; with His6-PhoP [3], 33.9 nM.

B6: dedA motif probe (dsDNA)
DNA 1: ATCTATAAAGAGATTTAACAAATTTTATAATTCTA
DNA 2: TAGAATTATAAAATTTGTTAAATCTCTTTATAGAT
With B6, the binding result with His6-PhoP [1] is on record as “binds”.
